Results: patent EP4717706A1

Tests used:
[1] = target: VLP2 (virus-like particles, capsid protein particles of AAV serotype 2) (AAV serotype 2 (AAV2)) (UniProt P03135); test: ELISA on immobilised VLP2 (purified protein); A450 after 1:1 0.5 M NaOH, 30°C, 30 min divided by A450 at 0 time
[2] = target: VLP2 (virus-like particles, capsid protein particles of AAV serotype 2) (AAV serotype 2 (AAV2)) (UniProt P03135); test: ELISA on immobilised VLP2 (purified protein, 5 µg/mL); A450 after 1:1 1 M NaOH with 1 mM CaCl2, 30°C, 60 min divided by A450 at 0 time
[3] = target: VLP2 (virus-like particles, capsid protein particles of AAV serotype 2) (AAV serotype 2 (AAV2)) (UniProt P03135); test: ELISA on immobilised VLP2 (purified protein, 5 µg/mL); A450 after 1:1 1 M NaOH with 1 mM CaCl2, 30°C, 20 min divided by A450 at 0 time
[4] = target: VLP2 (virus-like particles, capsid protein particles of AAV serotype 2) (AAV serotype 2 (AAV2)) (UniProt P03135); test: ELISA on immobilised VLP2 (purified protein, 5 µg/mL); A450 after 1:1 1 M NaOH with 1 mM CaCl2, 30°C, 30 min divided by A450 at 0 time
[5] = target: VLP2 (virus-like particles, capsid protein particles of AAV serotype 2) (AAV serotype 2 (AAV2)) (UniProt P03135); test: as above; remark: listed apart in the source
[6] = target: VLP2 (virus-like particles, capsid protein particles of AAV serotype 2) (AAV serotype 2 (AAV2)) (UniProt P03135); test: as above; remark: listed apart in the source
[7] = target: VLP2 (virus-like particles, capsid protein particles of AAV serotype 2) (AAV serotype 2 (AAV2)) (UniProt P03135); test: ELISA on immobilised VLP2 (purified protein); start of alkali treatment, the reference of the ratio
[8] = target: VLP2 (virus-like particles, capsid protein particles of AAV serotype 2) (AAV serotype 2 (AAV2)) (UniProt P03135); test: ELISA on immobilised VLP2 (purified protein, 5 µg/mL); A450 after 1:1 1 M NaOH with 1 mM CaCl2, 30°C, 60 min divided by A450 at 0 time; remark: listed apart in the source
[9] = target: VLP2 (virus-like particles, capsid protein particles of AAV serotype 2) (AAV serotype 2 (AAV2)) (UniProt P03135); test: ELISA on immobilised VLP2 (purified protein, 5 µg/mL); A450 after 1:1 1 M NaOH with 1 mM CaCl2, 30°C, 30 min divided by A450 at 0 time; remark: listed apart in the source
[10] = target: VLP2 (virus-like particles, capsid protein particles of AAV serotype 2) (AAV serotype 2 (AAV2)) (UniProt P03135); test: ELISA on immobilised VLP2 (purified protein, 5 µg/mL); A450 after 1:1 1 M NaOH with 1 mM CaCl2, 30°C, 60 min divided by A450 at 0 time; remark: listed apart in the source
[11] = target: VLP2 (virus-like particles, capsid protein particles of AAV serotype 2) (AAV serotype 2 (AAV2)) (UniProt P03135); test: ELISA on immobilised VLP2 (purified protein); A450 after 1:1 0.5 M NaOH, 30°C, 90 min divided by A450 at 0 time
[12] = target: VLP2 (virus-like particles, capsid protein particles of AAV serotype 2) (AAV serotype 2 (AAV2)) (UniProt P03135); test: ELISA on immobilised VLP2 (purified protein, 5 µg/mL); start of alkali treatment, the reference of the ratio
[13] = target: VLP2 (virus-like particles, capsid protein particles of AAV serotype 2) (AAV serotype 2 (AAV2)) (UniProt P03135); test: ELISA on immobilised VLP2 (culture supernatant); A450 after 1:1 1 M NaOH, 15 min, 30°C divided by A450 untreated
[14] = target: VLP2 (virus-like particles, capsid protein particles of AAV serotype 2) (AAV serotype 2 (AAV2)) (UniProt P03135); test: ELISA on immobilised VLP2 (purified protein, 5 µg/mL); A450 after 1:1 1 M NaOH with 1 mM CaCl2, 30°C, 45 min divided by A450 at 0 time
[15] = target: VLP2 (virus-like particles, capsid protein particles of AAV serotype 2) (AAV serotype 2 (AAV2)) (UniProt P03135); test: ELISA on immobilised VLP2 (purified protein); A450 after 1:1 0.5 M NaOH, 30°C, 30 min divided by A450 at 0 time; remark: listed apart in the source
[16] = target: VLP2 (virus-like particles, capsid protein particles of AAV serotype 2) (AAV serotype 2 (AAV2)) (UniProt P03135); test: ELISA on immobilised VLP2 (purified protein); A450 after 1:1 0.5 M NaOH, 30°C, 60 min divided by A450 at 0 time
[17] = target: VLP2 (virus-like particles, capsid protein particles of AAV serotype 2) (AAV serotype 2 (AAV2)) (UniProt P03135); test: ELISA on immobilised VLP2 (culture supernatant); A450 after 1:1 0.1 M glycine-NaOH pH 10.0, 15 min, 51.3°C divided by A450 untreated
[18] = target: VLP2 (virus-like particles, capsid protein particles of AAV serotype 2) (AAV serotype 2 (AAV2)) (UniProt P03135); test: ELISA on immobilised VLP2 (purified protein); A450 after 1:1 0.1 M glycine-NaOH pH 10.0, 15 min, 55.7°C divided by A450 untreated
[19] = target: VLP2 (virus-like particles, capsid protein particles of AAV serotype 2) (AAV serotype 2 (AAV2)) (UniProt P03135); test: ELISA on immobilised VLP2 (purified protein); A450 after 1:1 0.1 M glycine-NaOH pH 10.0, 15 min, 60.1°C divided by A450 untreated
[20] = target: VLP2 (virus-like particles, capsid protein particles of AAV serotype 2) (AAV serotype 2 (AAV2)) (UniProt P03135); test: ELISA on immobilised VLP2 (purified protein); A450 after 1:1 0.1 M glycine-NaOH pH 10.0, 15 min, 70°C divided by A450 untreated
[21] = target: VLP2 (virus-like particles, capsid protein particles of AAV serotype 2) (AAV serotype 2 (AAV2)) (UniProt P03135); test: ELISA on immobilised VLP2 (purified protein); A450 after 1:1 0.1 M glycine-NaOH pH 10.0, 15 min, 66.1°C divided by A450 untreated

Sequence of UniProt P03135 (P03135 whole entry): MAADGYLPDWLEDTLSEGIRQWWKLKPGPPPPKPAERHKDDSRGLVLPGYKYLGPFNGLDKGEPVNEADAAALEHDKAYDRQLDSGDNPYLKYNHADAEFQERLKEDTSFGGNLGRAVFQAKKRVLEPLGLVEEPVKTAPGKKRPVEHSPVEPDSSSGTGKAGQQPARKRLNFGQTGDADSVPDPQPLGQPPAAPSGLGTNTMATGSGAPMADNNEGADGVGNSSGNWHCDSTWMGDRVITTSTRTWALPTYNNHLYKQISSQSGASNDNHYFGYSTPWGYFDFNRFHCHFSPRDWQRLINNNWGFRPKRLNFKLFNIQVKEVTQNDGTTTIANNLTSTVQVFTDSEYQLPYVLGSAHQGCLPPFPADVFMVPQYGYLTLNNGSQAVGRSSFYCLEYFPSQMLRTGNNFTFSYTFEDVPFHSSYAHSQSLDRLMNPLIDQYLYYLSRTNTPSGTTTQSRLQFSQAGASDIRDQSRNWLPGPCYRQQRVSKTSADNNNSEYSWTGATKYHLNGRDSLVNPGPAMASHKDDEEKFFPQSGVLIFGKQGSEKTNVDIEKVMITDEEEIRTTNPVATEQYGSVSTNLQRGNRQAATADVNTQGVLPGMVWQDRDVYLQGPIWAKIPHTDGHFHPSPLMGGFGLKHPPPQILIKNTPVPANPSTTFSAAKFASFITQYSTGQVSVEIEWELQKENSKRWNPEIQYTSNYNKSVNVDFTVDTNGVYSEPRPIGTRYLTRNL

| Binder | Remaining activity [%] [1] [%] | Remaining activity [%] [2] [%] | Remaining activity [%] [5] [%] | Remaining activity [%] [7] [%] | Remaining activity [%] [8] [%] | Remaining activity [%] [9] [%] | Remaining activity [%] [11] [%] | Remaining activity [%] [12] [%] | Remaining activity [%] [17] [%] | other results |
| --- | --- | --- | --- | --- | --- | --- | --- | --- | --- | --- |
| AVR25c (AVR25a with K467N) (receptor) MGSAGESDQITLPKHEAQLKVYVLLVPPKGEASTYDWQLITHPRDYSGEMEGEHSQILKLSNLTPGLYEYRAVVEGQNAHSEGYVNVTVEPGPRKNRPPIAIVSPQFQEISLPTTSAVIDGSQSTDDDKIVQYHWEELKGPLREEKISEDTPILKLSNLVPGNYTFRLTVVDTDGATDSTTADLTVNKAVDHHHHHH | 91.2 | 1.96 | 16.3 | 100 | 2.19 | 22 | 66.9 | 100 |  | Remaining activity [%] [3]: 12.1%; Remaining activity [%] [4]: 2.87%; Remaining activity [%] [6]: 5.28%; Remaining activity [%] [10]: 0.197%; Remaining activity [%] [13]: 33.5%; Remaining activity [%] [14]: 0% |
| AVR31 (AVR25c with G314D, I366F, V394A, K455R, K497E, V499I) (receptor) MGSADESDQITLPKHEAQLKVYVLLVPPKGEASTYDWQLITHPRDYSGEMEGEHSQFLKLSNLTPGLYEYRAVVEGQNAHSEGYANVTVEPGPRKNRPPIAIVSPQFQEISLPTTSAVIDGSQSTDDDKIVQYHWEELKGPLREERISEDTPILKLSNLVPGNYTFRLTVVDTDGATDSTTADLTVNEAIDHHHHHH |  | 13.3 | 53.8 |  | 10.6 | 48.3 |  | 100 |  |  |
| AVR25a (AVR21 with N329K, E401G, T426A, A461P) (receptor) MGSAGESDQITLPKHEAQLKVYVLLVPPKGEASTYDWQLITHPRDYSGEMEGEHSQILKLSNLTPGLYEYRAVVEGQNAHSEGYVNVTVEPGPRKNRPPIAIVSPQFQEISLPTTSAVIDGSQSTDDDKIVQYHWEELKGPLREEKISEDTPILKLSQLVPGNYTFRLTVVDTDGATDSTTADLTVNKAVDHHHHHH | 62.3 |  |  | 100 |  |  | 0 |  |  | Remaining activity [%] [15]: 100%; Remaining activity [%] [16]: 47.9% |
| AVR8g with Y331H, F379S, K467N, A491T (receptor) MGSAGESDQITLPKNEVQLNAHVLQEPPKGETCTYDWQLITHPRDYSGEMEGEHSQILKLSNLTPGLYESKVIVEGQNAHSEGYVNVTVEPEPRKNRPPIAIVSPQFQEISLPTTSTVIDGSQSTDDDKIVQYHWEELKGPLREEKISEDTAILKLSNLVPGNYTFRLTVVDSDGATDSTTTNLTVNKAVDHHHHHH |  |  |  |  |  |  |  |  | 28.1 |  |
| AAV-binding protein AVR8g (receptor) MGSAGESDQITLPKNEVQLNAYVLQEPPKGETCTYDWQLITHPRDYSGEMEGEHSQILKLSNLTPGLYEFKVIVEGQNAHSEGYVNVTVEPEPRKNRPPIAIVSPQFQEISLPTTSTVIDGSQSTDDDKIVQYHWEELKGPLREEKISEDTAILKLSKLVPGNYTFRLTVVDSDGATDSTTANLTVNKAVDHHHHHH |  |  |  |  |  |  |  |  | 8.8 | Remaining activity [%] [18]: 0.837%; Remaining activity [%] [19]: 4.18%; Remaining activity [%] [20]: 3.77%; Remaining activity [%] [21]: 0% |
